Patent US20240402174A1 (Takeda / Millennium, published 2024)

Columns and labels:
GII.17/1978 VLP = biological target: T1, GII.17/1978 VLP (norovirus Hu/GII.17/C142/GF/1978); test: multiplex microsphere immunoassay
T1 construct: also called Hu/GII.17/C142/GF/1978
T1 chain: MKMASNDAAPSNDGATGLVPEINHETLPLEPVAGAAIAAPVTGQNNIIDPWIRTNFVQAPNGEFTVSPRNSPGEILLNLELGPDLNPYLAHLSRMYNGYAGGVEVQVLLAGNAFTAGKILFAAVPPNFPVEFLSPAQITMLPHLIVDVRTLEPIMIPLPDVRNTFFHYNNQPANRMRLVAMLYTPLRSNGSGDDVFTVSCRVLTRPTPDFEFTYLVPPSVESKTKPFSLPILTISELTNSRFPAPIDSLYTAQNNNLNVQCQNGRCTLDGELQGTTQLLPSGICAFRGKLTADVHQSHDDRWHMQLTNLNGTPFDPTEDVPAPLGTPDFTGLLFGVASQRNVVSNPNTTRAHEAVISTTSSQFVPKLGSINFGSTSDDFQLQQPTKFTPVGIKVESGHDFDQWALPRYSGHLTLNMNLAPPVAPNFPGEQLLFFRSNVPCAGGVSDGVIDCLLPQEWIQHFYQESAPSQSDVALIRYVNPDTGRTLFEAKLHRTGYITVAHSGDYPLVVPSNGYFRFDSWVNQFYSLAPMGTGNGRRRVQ

GII.1 VLP = biological target: T2, GII.1 VLP (norovirus Hu/GII.1/Ascension208/2010/USA); test: multiplex microsphere immunoassay
T2 chain: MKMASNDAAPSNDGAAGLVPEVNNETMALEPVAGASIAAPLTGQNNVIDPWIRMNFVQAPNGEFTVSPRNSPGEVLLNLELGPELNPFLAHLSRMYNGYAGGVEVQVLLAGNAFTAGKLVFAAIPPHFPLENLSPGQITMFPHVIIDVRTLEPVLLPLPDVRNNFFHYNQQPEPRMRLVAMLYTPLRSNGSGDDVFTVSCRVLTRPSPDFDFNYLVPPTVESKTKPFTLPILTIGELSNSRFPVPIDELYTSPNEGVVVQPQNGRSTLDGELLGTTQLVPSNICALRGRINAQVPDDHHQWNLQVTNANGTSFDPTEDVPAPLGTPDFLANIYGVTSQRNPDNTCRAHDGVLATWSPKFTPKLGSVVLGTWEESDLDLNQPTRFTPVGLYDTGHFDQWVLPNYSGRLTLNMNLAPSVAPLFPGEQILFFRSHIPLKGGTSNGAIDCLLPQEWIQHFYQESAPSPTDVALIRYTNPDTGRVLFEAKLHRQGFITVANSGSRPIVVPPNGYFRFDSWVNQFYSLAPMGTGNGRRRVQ

GII.4/Sydney VLP = biological target: T3, GII.4/Sydney VLP (norovirus …, UniProt P54635 1-538); test: PGM blockade assay, serially diluted mAb
T3 construct: also called Hu/GII.4/Sydney/NSW0514/2012/AU
T3 chain: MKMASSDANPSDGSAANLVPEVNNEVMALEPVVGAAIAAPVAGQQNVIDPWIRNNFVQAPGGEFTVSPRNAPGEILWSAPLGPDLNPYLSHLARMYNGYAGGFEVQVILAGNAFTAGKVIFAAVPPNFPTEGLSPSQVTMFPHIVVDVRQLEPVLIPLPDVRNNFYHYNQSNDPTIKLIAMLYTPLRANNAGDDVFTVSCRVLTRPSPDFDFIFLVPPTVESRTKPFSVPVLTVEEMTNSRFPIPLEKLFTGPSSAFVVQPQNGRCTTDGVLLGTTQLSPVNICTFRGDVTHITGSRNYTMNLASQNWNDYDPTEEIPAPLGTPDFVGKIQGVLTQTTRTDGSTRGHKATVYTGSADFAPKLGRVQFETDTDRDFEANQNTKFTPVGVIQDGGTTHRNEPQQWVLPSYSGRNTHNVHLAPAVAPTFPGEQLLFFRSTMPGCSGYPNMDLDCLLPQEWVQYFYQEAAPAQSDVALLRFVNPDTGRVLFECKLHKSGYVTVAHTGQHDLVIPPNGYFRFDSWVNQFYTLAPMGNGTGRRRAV
Description: (§1) Plates were washed 3 times with PBST before use. […] The mixture was transferred to the PGM-coated plates including VLP-only controls and incubation carried out for 1 h at 22° C. or 37° C. Following 3 washes with PBST, detection antibody specific for the corresponding VLP was added and the plates were incubated at room temperature for 1 h and then washed 3 times with PBST. […] Following 3 washes, enzyme substrate (ABTS, KPL) was added and allowed to react for 12 min at room temperature. ABTS Peroxidase Stop Solution (KPL) was then added and plates were read at a wavelength of 450 nm in a Molecular Devices plate reader using SoftMax Pro Software (Molecular Devices, Downingtown, PA, USA) to obtain the Optical Density (GD) of each well.
(§2) The following, day corresponding dilutions incubated with VLPs were transferred to the PGM-coated plates. The OD data was curve fit and blocking titers were calculated as the supernatant dilution interpolated at 1/2 the maximum OD for the plate. The blocking titers represent the supernatant dilution that produces a 50% reduction in VLP binding to PGM. The maximum OD for the plate was calculated from the VLP only control.

GII.4/Yerseke VLP = biological target: T4, GII.4/Yerseke VLP (norovirus Hu/GII.4/Yerseke38/2006/NL, UniProt P54635 1-539); test: PGM blockade assay, serially diluted mAb
T4 construct: also called Hu/GII.4/Yerseke38/2006/NL
T4 chain: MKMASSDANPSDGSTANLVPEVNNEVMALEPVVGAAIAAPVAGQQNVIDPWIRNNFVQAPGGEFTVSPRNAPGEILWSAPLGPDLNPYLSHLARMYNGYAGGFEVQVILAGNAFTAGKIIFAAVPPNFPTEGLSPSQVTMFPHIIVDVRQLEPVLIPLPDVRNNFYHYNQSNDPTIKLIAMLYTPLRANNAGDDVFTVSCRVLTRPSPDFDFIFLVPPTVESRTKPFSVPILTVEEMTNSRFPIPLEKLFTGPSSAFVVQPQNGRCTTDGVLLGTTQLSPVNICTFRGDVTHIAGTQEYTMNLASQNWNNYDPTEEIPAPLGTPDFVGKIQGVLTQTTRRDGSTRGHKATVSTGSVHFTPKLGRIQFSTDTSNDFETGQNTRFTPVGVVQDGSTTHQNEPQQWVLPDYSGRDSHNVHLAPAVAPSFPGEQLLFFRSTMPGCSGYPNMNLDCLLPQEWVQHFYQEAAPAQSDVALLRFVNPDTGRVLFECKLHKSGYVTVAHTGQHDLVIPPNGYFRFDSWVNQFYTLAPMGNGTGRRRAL
Description: as §1, §2

GII.4/Houston VLP = biological target: T5, GII.4/Houston VLP (norovirus …, UniProt P54635 1-539); test: PGM blockade assay, serially diluted mAb
T5 construct: also called Hu/GII.4/Houston/TCH186/2002/US
T5 chain: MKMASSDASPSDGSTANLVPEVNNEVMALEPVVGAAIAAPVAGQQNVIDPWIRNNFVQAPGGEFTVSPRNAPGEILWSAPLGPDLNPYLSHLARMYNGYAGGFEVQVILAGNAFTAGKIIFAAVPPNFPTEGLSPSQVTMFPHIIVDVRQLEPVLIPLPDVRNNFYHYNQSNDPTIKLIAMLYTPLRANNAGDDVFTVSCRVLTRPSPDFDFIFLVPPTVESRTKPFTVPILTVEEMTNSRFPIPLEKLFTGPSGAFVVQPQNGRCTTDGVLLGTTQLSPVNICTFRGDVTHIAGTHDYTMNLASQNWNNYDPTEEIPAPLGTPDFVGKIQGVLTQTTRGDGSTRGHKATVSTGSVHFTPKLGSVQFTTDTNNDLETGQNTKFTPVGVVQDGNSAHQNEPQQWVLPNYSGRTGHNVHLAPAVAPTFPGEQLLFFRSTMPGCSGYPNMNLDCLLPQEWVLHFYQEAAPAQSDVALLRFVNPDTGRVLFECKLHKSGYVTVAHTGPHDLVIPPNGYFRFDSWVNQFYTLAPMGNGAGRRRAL
Description: as §1, §2

B1: human mAb 1431 (antibody, V domains shown)
VH: QVQLVQSGGGLVQPGGSLRLSCAASGFAFSNHGMHWVRQAPGKGLEWLSYISGSTGAIHYANSVKGRFTISRDNARNSLDLQMNSLGDEDTAVYYCARDGPRPDGTGYAGPSNDYWGQGTLVSVSS
VL: EIVLTQSPASLSLSPGERATLSCKASRSISIYLAWYQQKPGQAPRLLIYDASYRAIGIPARFSGSGSGTDFTLTISNLEPEDFAVYYCQHRSSWPALTFGGGTKVEI
notes: also called A1431
In the case of B1, the binding result (GII.17/1978 VLP) is reported as “no binding”, the binding result (GII.1 VLP) is reported as “no binding” and the blocking titer (GII.4/Sydney VLP) is reported as 7280. For the same binder, the blocking titer (GII.4/Yerseke VLP) was 4850 and the blocking titer (GII.4/Houston VLP) was 12100.
